For test [1], the target named is T1, [2Fe-2S]-Grx3-Bol2 heterodimer (Saccharomyces cerevisiae, UniProt P53082+Q03835).
T1 sequence (Q03835 1-250): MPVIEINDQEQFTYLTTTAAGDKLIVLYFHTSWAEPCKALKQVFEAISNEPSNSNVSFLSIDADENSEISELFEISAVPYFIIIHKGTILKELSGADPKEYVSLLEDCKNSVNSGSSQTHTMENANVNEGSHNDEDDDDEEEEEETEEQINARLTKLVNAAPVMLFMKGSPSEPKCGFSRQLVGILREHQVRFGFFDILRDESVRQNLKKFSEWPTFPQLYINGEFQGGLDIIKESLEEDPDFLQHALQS
T1 sequence (P53082 1-120): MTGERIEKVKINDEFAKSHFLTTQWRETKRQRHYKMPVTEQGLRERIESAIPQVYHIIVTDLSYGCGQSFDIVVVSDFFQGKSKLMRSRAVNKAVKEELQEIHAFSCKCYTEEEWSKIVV
Briefly: Bradford, iron and acid-labile sulfide analysis. The note with it: cluster bridges Grx3 and Bol2; pH 8.0, 1 mM GSH, anaerobic. Format: binding.

The target in test [2] is T2, [2Fe-2S]-Grx3-Bol2 heterodimer (S. cerevisiae, UniProt Q03835 1-250; P53082 1-120).
T2 sequence (looked up) 1: T1 sequence (Q03835 1-250)
T2 sequence (looked up) 2: T1 sequence (P53082 1-120)
Briefly: heparin chromatography co-elution.

The target of the next test is T3, Grx3 (S. cerevisiae, UniProt Q03835 1-250).
T3 sequence (looked up): T1 sequence (Q03835 1-250)
Briefly: SEC. (In general: In gel filtration, larger molecules generally elute earlier.)

Numbering of substitutions follows the chain as printed. Numbers in names are those of the source.

[2Fe-2S] cluster: the “[2Fe-2S] cluster per heterodimer” value in test [1] is reported as 0.9–1.05 per heterodimer.

B1: Aft2(1–204) C187A (domain or fragment, S. cerevisiae, UniProt Q08957 1-204, looked up)
chain: MKAKSMKSIISVPISVSKTGKMKLTASPDNLASMMSKDQNKLIHLDPVPSFEDRHEIKPWLQKIFYPQGIDIVIERSDSSKVTFKCRSVRSKVGLNPKSKGSSSRSHACPFRIRAAYSVRLQKWNVVVMNNIHSHELRFDLITKTDDYKKFKENLRQKNDEKAIKTFDELEYKASLNLPLVTPIISADCGLTKEIEAFNNIFLP
As to B1, the binding result in test [2] was “binds”.

B2: Aft2(1–204) C189A (domain or fragment, S. cerevisiae, UniProt Q08957 1-204, looked up)
chain: B1 chain with A187C, C189A
As for B2, the binding result in test [2] is reported as “binds”.

B3: Bol2 (natural protein, S. cerevisiae, UniProt P53082 1-120, looked up)
chain: T1 sequence (P53082 1-120)
In the case of B3, in the test with Grx3, the binding result is recorded as “binds”.
